17 sequences from the DeepSol protein solubility set can be followed below.

This data set in a line: soluble on expression in E. coli; label from the status in PepcDB or PDB records.
As to “MGSDKIHHHHHHMPTYDAVIVGSGINSLVCAAVLARSGKRVCVLERNSTLGGCIRTEALHAPGYLHDTLSTAHPLFVTSPGYAELKDDLHQAGLSYANNDTPTGVLLPGNRSLILATSRERNVSAFNALASGDGDAYLAAMQEVEQNAGLVFSLLGNELWSADVAKTVAGRLWKQGVHDTVAFFSPALMSCRSWLETRIRSDLVRALLAPWVLHTGLGPESAMSALMGKVVAFSLEAVGLPIVQGGNARTVEAFRQIVESHGGAFHVNADVEDVLVENGSARGVRTRDDRVFMGKEIICNVTPGQLYGKLLAPAHVPPALRQQAAEYRYGKGNMQIHLSLSAPPDWPHAHLRNVIYLHLTSGLDGVSRAVSEAERGLLPAEGTICVAQPCAVDPSRSPAGGWVLWIQVPECPRTIKGDALGEIDAPADGRWTPEIRERYADRIIDRIARQVPNLKASIVGRTVLSPADLEAMNINLVGGDPYSGECSIDQFMVWRPLRGARNHATPVKHLHHIGASTHPGPGLGGTSGYHVANALARKRAKSNRT”, the “soluble on expression in E. coli” value was “not soluble”.
For “MWLLQLMQQQHSIDMMKKQGLKLEAQDLYNPNGVSLKDAVGIFGGGCTGEIISPEGLILTNHHCGYSSIQQHSSVEHDYLTDGFWATSRDQELPTPGLKFTFIERIEDITDIVNAKIAAKEITESQSFTGAFLEGLAKELYEKSDLKDKKGIVPQALPFYAGNKFYLFYKKIYPDVRMVAAPPSSVGKFGGETDNWMWPRHTGDFSMFRIYADANGEPAEYSASNTPLKTKKHLSISIKGLKEGDYAMIMGFPGRTSRYLTVSEVKERMESTNEPRIRIRGARLAVLKEVMNASDKIRIQYANKYAGSSNYWKNSIGMNKAIIDNDVLGTKAEQEAKFAEYAKAQNNTEYANVVKKIDDLVAQTAPLNYQLTCLTEVFFGAIEFGNSMLTKTREALVDKNDSLIKVRLEGLKENFKSIHNKDYDHEVDRKVAKALLPLYAEMIPANQRPAIYKVIEQKYKGDYNKFVDDMYDKSIFANQANFDKFLKKPTVKAIDEDLALQYAQSKYDQYGNLLDQLKELDKELALLHKTYIRGLGEMKLPVPSYPDANFTIRLTYGNVKPYDPKDGVHYNYYTTTKGILEKENPEDREFVVPAKLKELIEKKDYGRYALPNGDMPVCFLSTNDITGGNSGSPVLNENGELIGCAFDGNWESLSGDINFDNNLQRCINLDIRYVLFILEKLGNCGHLINEMTIVE” the value was “not soluble”; for “MGHHHHHHSHRASRKICFVCKKKGAAINCQKDQCLRNFHLPCGQERGCLSQFFGEYKSFCDKHRPTQNIQHGHVGEESCILCCEDLSQQSVENIQSPCCSQAIYHRKCIQKYAHTSAKHFFKCPQCNNRKEFPQEMLRMGIHIPDR”, “not soluble”; for “MGSSHHHHHHSQDMDKNELVQKAKLAEQAERYDDMAACMKSVTEQGAELSNEERNLLSVAYKNVVGARRSSWRVVSSIEQKTEGAEKKQQMAREYREKIETELRDICNDVLSLLEKFLIPNASQAESKVFYLKMKGDYYRYLAEVAAGDDKKGIVDQSQQAYQEAFEISKKEMQPTHPIRLGLALNFSVFYYEILNSPEKACSLAKTAFDEAIAELDTLSEESYKDSTLIMQLLRDNLTLWTSDTQGDEAEAGEGGEN”, “soluble”.
As to “MGSDKIHHHHHHMNLAAFEAFVKVMETGSISVAADQLFITQPAVTKRIHSLEEYFGVKLFESAGRGVQATHAAHSLLPKVKSWLNELRDIHHTLSHEQTQIQGRLKIGTSHHIGLHHLPAPLKHFVQQFPQVTLDVHFVDSEQAHEQVLAGDLELAFLTLPPSGDERLNYITIWNDPLVFVAAPFHPLAQKKNLTLQDLIEYPSLLPAAQTYTAQITLAEFEKQGLKPKITMSNNPLESIRMLVSIGLGWSVLPKTLLNQDMQQLDLNVEMNRQLGMVWHPARTQSRAMQELIKMMQE”, the “soluble on expression in E. coli” value is “not soluble”.
In the case of “MGSDKIHHHHHHMYDAVIIGGGPGGYVCAIKLAQLGKKVALVEKDALGGTCTNRGCIPTKAMLTVSHLMDEMKEKASKYGLKVSGVEYDVAAIMKHVQKSVMMSRKGIEYLLKKNGVEVFKGTAVVENKNTVVVQETGEKLEAKNLVLAHGSVPSVFSPFDIDGVWTSDDVFNLKEFPKSLVIVGGGVIGVEFATFFGSFGVDVTIVEIAEHILPYEDSDVAEEVKKALKRKGVKILEKTKISSLSKVDDGFEVALENGETLKAEKVLLAAGRKPNIPEDVKALGVKIEKGVVTDSRMRTNVENVYAIGDIRSGIMLAHVAMYEGIVAAKNIAGEEEEMDYSAVPSIIFSSPEVASVGVREKDVNPEEVVISKFPVSANGRARTMLENIGFAKVIADKKDGTVLGMSIVSPSATDMIMEGVIAVKFRMKAEDLEKAIHPHPTLTETILGALEGVSGKPIHL”, the “soluble on expression in E. coli” value is reported as “not soluble”.
To “MGSDKIHHHHHHMNGTATGPRSSHFHWLLCALIVALPGCRDKPLREVIDRPVLFTEIADPQNASYGRFAGSIQPQHEVALGFRIAGRLATRHAEMGDRVRKGDLLATLDPSDQQNRLRARQAELSRARSAWQQLSDEQTRYQQLYTRGVGSRARLDQLNSDLRSQNALLDQASAAVQQAGDHLAYTRLTAEFDGLVTQWQTEVGQVMATGQAVVSLARPESREAVVDLPVGLLASLDDSRQIRVISQLDKQVSVIASVRQLAPQIDAGTRTQRVRLALQHIPDSLRLGSTVTVEISGNAPAFHELPASAVLARDGKDQVWVIDPSTSTLSPRAVQVLARKGGKVQVSGELHEGEKVVTAGVNGMQSGQKIRMQREVSL” belongs “not soluble”; to “MGSDKIHHHHHHMNLKQLRYFVTICEEGQITAAAKRLHIKQPLLSYEIKQLELELETSLFIRGPRGISLTDAGKVLKPYAEQITELSDVAKTKVKYLDKGISGSLSIGSISSSINKLPNQRLLKLKKYYPNIAINVIEGNTYKLLGYLEKGLIDLAILRTPFSSKGVIGYYFDKEPMVAVSAKNNQKDTVGLPDKYLKIDDLSNKPLIIYRRFKELIENTFRNLGFNPLIVVRCDDARTALDGAKVGFGTAIVPKSAILQVENEGEKDIEFREIKEKALETQLAIMWRRDDSFNPLTENFLKMFIGK”, “not soluble”; to “MAERETYADFSVVEKQRNFLTAEEFPEGPYGSPRRDDAPVENKSTPWKEGQRHYSAFNYEFKSFHQNIPRRDPAAHPPHDDPHQSEQFPYNEGE”, “not soluble”.
To “MAENKLGRDIPRKYANQYGVFEGELAHIKSYKESSRQVKPVKPSDDKLLSSIHEAIEKTRLKDGMTISFHHHFREGDYVMNMVLDEIAKMGIKDISIAPSSIANVHEPLIDHIKNGVVTNITSSGLRDKVGAAISEGIMENPVIIRSHGGRARAIATDDIHIDVAFLGAPSSDAYGNANGTRGKTTCGSLGYAMIDAKYADQVVIVTDTLVPYPNTPISIPQTDVDYIVVVDAIGDPEGIAKGATRYTKNPKELLIAEYAAKVITSSPYYKEGFSFQTGTGGASLAVTRFMREQMIKDDIKANFALGGITNAMVELLEEGLVDKILDVQDFDHPSAVSLDRNAEKHYEIDANMYASPLSKGSVINQLDICVLSALEVDTNFNVNVMTGSDGVIRGASGGHCDTAFAAKMSLVISPLVRGRIPTFVDKVNTVITPGTSVDVVVTEVGIAINPNRPDLIEYFKDLKVPQLTIEELKEKAYAIVGNPQPIQYGDKIVALIEYRDGSLIDVVRNVLEHHHHHH” belongs “soluble”; to “MRNTLKAATLESKFPLLAVEADCIISKDADITAVFEVDLPELFTVTAAEYEAIHAAWAKAIKVLPNYTVVHKQDWFIREDYRSQTDKENLSFLSRSYEMHFNERPFLNHKCYLYLTKTTKERMRMQSSFSSLCRGFIIPKEVDKDTTAHFLDTVGQFARIVNDTGLVHLRRLVGDEITGTENKAGLVEKYFCLSMENTTALEDIELGDDGLRVGDKHVSVHTLSELDALPSKVGTDCRYERLSTDKSDCKLSFASPVGLLLSCNHLYNQYIFLDDSGENLQRFEKNARNMQSLSKYSRSNQINKEWIDLYLNDAHSFGLTSVRAHCNIIAWTDNPMEVKNMRNDVGSQIAMMECKPRHNTVDAATLYWAAIPGNGADFPAEESFYTFIEQALCFWVEETNYRSSVSPFGLKMSDRISGKPLHVDISDLPMKRGVTTNRNKFVLGGSGSGKSFFMNHLARQYYEQGTHVVLIDTGNSYQGLCSLIHQKSGGKDGIYFTYTDENPIAFNPFFTDDKVFDIEKRESIKTLILTLWKKDNEPATRSEEVALSNAVSLYIRRIKEDESIVPSFNTFYEFVKTDYRRILEEKEVREKDFDLAGFLNVLEPYYRGGEYDFLLNSDKQLDLLGKRFIVFEIDQIKDHPILFPVTTIIIMELFINKMRRLKGVRKMIIIEEAWL”, “not soluble”; to “MSKVPSDIEIAQAAKMKPVMELARGLGIQEDEVELYGKYKAKISLDVYRRLKDKPDGKLILVTAITPTPAGEGKTTTSVGLTDALARLGKRVMVCLREPSLGPSFGIKGGAAGGGYAQVVPMEDINLHFTGDIHAVTYAHNLLAAMVDNHLQQGNVLNIDPRTITWRRVIDLNDRALRNIVIGLGGKANGVPRETGFDISVASEVMACLCLASDLMDLKERFSRIVVGYTYDGKPVTAGDLEAQGSMALLMKDAIKPNLVQTLENTPAFIHGGPFANIAHGCNSIIATKTALKLADYVVTEAGFGADLGAEKFYDVKCRYAGFKPDATVIVATVRALKMHGGVPKSDLATENLEALREGFANLEKHIENIGKFGVPAVVAINAFPTDTEAELNLLYELCAKAGAEVALSWAKGGEGGLELARKVLQTLESRPSNFHVLYNLDLSIKDKIAKIATEIYGADGVNYTAEADKAIQRYESLGYGNLPVVMAKTQYSFSDDMTKLGRPRNFTITVREVRLSAGGRLIVPITGAIMTMPGLPKRPAACNIDIDADGVITGLF”, “soluble”.
To “MGVSLSKGGNVSLTKEAPGLTAVIVGLGWDVRTTTGTDFDLDASALLTNVEGKVANDQNFVFFNNLKSPDGSVEHTGDNITGEGEGDDEQIKVDLATVPADVDKIVFPVSIYDAENRQQSFGQVRNAFIRVVNQAGGAEIARYDLSEDASTETAMVFGELYRNGPEWKFRAIGQGYASGLRGIAQDFGVNV” belongs “not soluble”; to “MGSDKIHHHHHHMALPTQLVYPGFEKIPRFWDNEQQSQVARVDPGEYYYSCQDEFIYTRLGSCVAACIWDPLMGIGGLNHFLLPEKVLHEDWHQLTSYSCRYGNWAMEQLINGILSAGGLKSRLKAKIFGGATLGRISVLNVGQSNIAFVREYLALEGIPVMSEDLGGPWPRKVLFHPQSGRVRLKRLEMTGMAQIEREEEAYLNDVAEHAKVPEPGSIELF”, “not soluble”.
For “GSASPTPPYLKWAESLHSLLDDQDGISLFRTFLKQEGCADLLDFWFACTGFRKLEPCDSNEEKRLKLARAIYRKYILDNNGIVSRQTKPATKSFIKGCIMKQLIDPAMFDQAQTEIQATMEENTYPSFLKSDIYLEYTRTGSESPKV”, the “soluble on expression in E. coli” value was “soluble”.
For “MAPTSSIEIVLDKTTASVGEIVTASINIKNITNFSGCQLNMKYDPAVLQPVTSSGVAYTKSTMPGAGTILNSDFNLRQVADNDLEKGILNFSKAYVSLDDYRTAAAPEQTGTVAVVKFKVLKEETSSISFEDTTSVPNAIDGTVLFDWNGDRIQSGYSVIQPAVINLDMTKASYITMGYDKNAAEVGEIIKATVKINKITNFSGYQVNIKYDPTVLQAVNPKTGVAYTNSSLPTSGELLVSEDYGPIVQGVHKISEGILNLSRSYTALEVYRASESPEETGTLAVVGFKVLQKKATTVVFEDSETMPNGITGTTLFNWYGNRIQSGYFVIQPGEINSAPIATLEHHHHHH” the value was “soluble”.
For “MAHHHHHHMMPTQSEEQTKAQIPKSQAKIVNELIENKDTICAWCFDVLKYELKNEKFDKVPPLIQSLHNDGFKIPFFVKWMKLNDVKDMGSYNYDAYELNGCIGCLGETDIMELRYYALESSLNDTRFYPITLKDFPFLIVTITYLFNFEKCAHVYDWVIGKHGIKISFVANKRRYSSTFLPEVASQHNFDHQTTVKKLIRKANYRGEINDELLENIEVERYEGVSCSLTHVDYERVKRD” the value was “soluble”.
